# Data from PMC5494190, “Structure of the Rpn13-Rpn2 complex provides insights for Rpn13 and Uch37 as anticancer targets” (Nature Communications, 2017).
# No end group written: not given here. *: point of attachment. FITC‑N3 = fluorescein azide; Pent4ynoyl = C#CCCC(=O)*; AEEA = NCCOCCOCC(=O)O
# What was measured:
# [1] = molecular target: T1, hRpn13 (1–150), which includes the Pru domain (human, UniProt Q16186 1-150); test: ITC; 25 °C; 200 μM hRpn2 peptide injected into 20 μM or 18 μM hRpn13 Pru in the cell; 20 mM sodium phosphate, 50 mM NaCl, 10 mM βME, pH 7.0; one-site fit; settings: both partners purified
# T1 construct: hRpn13/Adrm1, human, residues M1-L150 (Pru domain; N-terminal 19 and C-terminal 20 residues randomly coiled); Isotope-labelled (15N, 13C) in some NMR samples; also called hRpn13 Pru; hRpn13 Pru (1–150); not shown: His tag, N-terminal, cleaved
# T1 sequence (Q16186 1-150): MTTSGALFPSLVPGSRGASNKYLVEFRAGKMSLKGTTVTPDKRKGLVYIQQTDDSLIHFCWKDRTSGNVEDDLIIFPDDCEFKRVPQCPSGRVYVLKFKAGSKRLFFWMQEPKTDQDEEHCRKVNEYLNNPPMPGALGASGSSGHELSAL
# full-length hRpn13 = molecular target: T2, full-length hRpn13 (human, UniProt Q16186 1-407); test: fluorescence polarisation; 10 nM FITC-hRpn2 (940–953) with serially diluted full-length hRpn13; 20 mM sodium phosphate, 50 mM NaCl, pH 6.5; room temperature, 30 min; Hill slope model; also with 100 μM RA190 or 2% DMSO; settings: both partners purified
# T2 construct: hRpn13/Adrm1, human, full-length protein (Pru and DEUBAD domains); The preparation of the full-length protein is not described; it was not held on Talon resin by itself in the pull-down, so it probably carried no His tag; also called hRpn13 full-length protein; Adrm1; source: purified recombinant protein
# T2 sequence (Q16186 whole entry, the tested form may be a part): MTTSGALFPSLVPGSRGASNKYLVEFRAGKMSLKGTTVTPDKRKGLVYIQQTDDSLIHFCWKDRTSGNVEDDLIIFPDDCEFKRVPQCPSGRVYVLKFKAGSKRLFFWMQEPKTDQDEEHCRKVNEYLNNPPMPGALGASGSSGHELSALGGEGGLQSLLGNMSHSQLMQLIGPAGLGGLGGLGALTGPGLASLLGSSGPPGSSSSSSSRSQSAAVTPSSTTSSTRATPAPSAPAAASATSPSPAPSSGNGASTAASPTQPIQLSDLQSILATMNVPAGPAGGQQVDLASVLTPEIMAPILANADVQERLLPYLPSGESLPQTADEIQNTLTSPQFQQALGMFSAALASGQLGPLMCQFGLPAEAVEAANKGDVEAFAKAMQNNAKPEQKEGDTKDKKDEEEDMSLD
Kd [1] [nM],Kd (full-length hRpn13) [nM],Binder
1960 ± 220,,"PPEPFEYIDD (source: synthetic peptide (Fmoc chemistry on Wang resin, HPLC purified)) [hRpn2 (944–953)]"
27 ± 10,,"QEPEPPEPFEYIDD (The author contributions say that peptides were synthesized for the DSF experiment, so the DSF sample may be a synthetic peptide of the same limits; also called hRpn2 peptide; hRpn2 fragment; source: E. coli BL21(DE3) pLysS, purified (Glutathione S-sepharose 4B, PreScission cleavage, Superdex75); not shown: GST, N-terminal, cleaved) [hRpn2 (940–953)]"
,14.7,"{FITC‑N3-Pent4ynoyl-AEEA}-QEPEPPEPFEYIDD (also called FITC-labelled hRpn2 probe; source: synthetic peptide (Fmoc solid-phase synthesis, click coupling to FITC-N3, HPLC purified)) [FITC-hRpn2 (940–953)]"
